From paper PMC314469, “Protein Interaction Networks by Proteome Peptide Scanning” (PLoS Biology, 2004) come the findings set out here.

Common to all, as to assay: SPOT array
Assay [1] deals with T1, Boi1 SH3 (BOI1_YEAST), P38041.
T1 chain: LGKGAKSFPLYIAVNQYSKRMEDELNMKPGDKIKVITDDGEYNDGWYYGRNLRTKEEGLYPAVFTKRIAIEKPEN

The target of assay [2] is T2, Boi2 SH3 (BOI2_YEAST), P39969.
T2 chain: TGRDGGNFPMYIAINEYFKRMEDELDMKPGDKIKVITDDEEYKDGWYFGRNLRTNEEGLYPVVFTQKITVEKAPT

In assay [3] the target is T3, Myo5 SH3 (MYO5_YEAST), Q04439.
T3 chain: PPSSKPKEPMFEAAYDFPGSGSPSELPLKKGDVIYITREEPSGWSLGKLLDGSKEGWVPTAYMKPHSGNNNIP

The target of assay [4] is T4, Rvs167 SH3 (RV167_YEAST), P39743.
T4 chain: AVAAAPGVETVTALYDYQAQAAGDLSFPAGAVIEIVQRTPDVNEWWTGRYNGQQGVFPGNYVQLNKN

Assay [5] has as its target Sho1 SH3 (SHO1_YEAST), P40073.
In assay [6] the target is T5, Yfr024 SH3 (LSB3_YEAST), P43603.
T5 chain: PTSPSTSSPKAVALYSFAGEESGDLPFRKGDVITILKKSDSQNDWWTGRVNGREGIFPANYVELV

For assay [7], the target named is T6, Yhr016c SH3 (YSC84_YEAST), P32793.
T6 chain: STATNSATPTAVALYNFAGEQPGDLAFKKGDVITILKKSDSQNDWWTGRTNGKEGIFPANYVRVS

Chain of Sho1 SH3 (SHO1_YEAST), P40073 (P40073 295-366): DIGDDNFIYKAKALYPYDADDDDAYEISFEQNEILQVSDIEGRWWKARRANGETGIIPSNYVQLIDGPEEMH

Consider AFVPKRKPSLPQLA [YLR371W 185-198], for which the normalised SPOT signal, Boehringer light units (BLU); mean over the file's lines of this peptide in assay [1] amounted to 2730; in assay [2], 16.6; in assay [3] it was 1740; in assay [4], 294; in assay [5] it was 78.9; in assay [6], 718. For the same molecule, the normalised SPOT signal, Boehringer light units (BLU); mean over the file's lines of this peptide in assay [7] was 47.2.

With AFWWKKNPKTPSDY [YKL189W 13-26], the normalised SPOT signal, Boehringer light units (BLU); mean over the file's lines of this peptide was 110 in assay [1]; 64.4 in assay [2]; 65 in assay [3]; 72.6 in assay [4]; 900 in assay [5]; 303 in assay [6]. In addition, the normalised SPOT signal, Boehringer light units (BLU); mean over the file's lines of this peptide in assay [7] came to 112.

Turning to YVNPRNLPSVPNGL [YLR418C 264-277], the normalised SPOT signal, Boehringer light units (BLU); mean over the file's lines of this peptide in assay [1] amounted to 174; in assay [2] it was 59.5; in assay [3], 180; in assay [4], 490; in assay [5] it was 2350; in assay [6], 952. Moreover, the normalised SPOT signal, Boehringer light units (BLU); mean over the file's lines of this peptide in assay [7] was 765.

On to AERAKKAPSLPEGQ [YJR016C 376-389], for which the normalised SPOT signal, Boehringer light units (BLU); mean over the file's lines of this peptide worked out at 925 in assay [1]; 42.3 in assay [2]; 389 in assay [3]; 4 in assay [4]; 173 in assay [5]; 44.4 in assay [6]. Further, the normalised SPOT signal, Boehringer light units (BLU); mean over the file's lines of this peptide in assay [7] is 0.

With AALVKFVPSKPMSV [YBR118W 397-410], the normalised SPOT signal, Boehringer light units (BLU); mean over the file's lines of this peptide in assay [1] worked out at 107; in assay [2], 79.2; in assay [3], 281; in assay [4] it was 106; in assay [5] it was 32.5; in assay [6], 184. In assay [7], this molecule had a normalised SPOT signal, Boehringer light units (BLU); mean over the file's lines of this peptide of 55.1.

As to YVYGRQDPKKPFFT [YNL137C 410-423], the normalised SPOT signal, Boehringer light units (BLU); mean over the file's lines of this peptide amounted to 1330 in assay [1]; 23.2 in assay [2]; 345 in assay [3]; 201 in assay [4]; 118 in assay [5]; 159 in assay [6]. The normalised SPOT signal, Boehringer light units (BLU); mean over the file's lines of this peptide in assay [7] came out at 32.8.

Take AEIVKLTPKNPFYK [YGL056C 180-193]: the normalised SPOT signal, Boehringer light units (BLU); mean over the file's lines of this peptide was determined as 155 in assay [1]; 30.2 in assay [2]; 102 in assay [3]; 99.2 in assay [4]; 39.3 in assay [5]; 2 in assay [6]. Besides, in assay [7], the normalised SPOT signal, Boehringer light units (BLU); mean over the file's lines of this peptide turned out to be 8.4.

For YWGKKFEPERPFEF [YJR137C 1187-1200], the normalised SPOT signal, Boehringer light units (BLU); mean over the file's lines of this peptide is 678 in assay [1]; 266 in assay [2]; 385 in assay [3]; 350 in assay [4]; 460 in assay [5]; 1160 in assay [6]. The normalised SPOT signal, Boehringer light units (BLU); mean over the file's lines of this peptide in assay [7] was found to be 324.

ADDLKYIPPIPQDF [YOR264W 26-39]: the normalised SPOT signal, Boehringer light units (BLU); mean over the file's lines of this peptide worked out at 133 in assay [1]; 15.8 in assay [2]; 86.7 in assay [3]; 69.2 in assay [4]; 59.5 in assay [5]; 6 in assay [6]. Further, in assay [7], the normalised SPOT signal, Boehringer light units (BLU); mean over the file's lines of this peptide stood at 16.1.

Consider YYYYKHYPNMPPIN [YMR313C 453-466], for which the normalised SPOT signal, Boehringer light units (BLU); mean over the file's lines of this peptide in assay [1] turned out to be 227; in assay [2] it was 273; in assay [3] it was 288; in assay [4], 310; in assay [5] it was 59.1; in assay [6], 391. In assay [7], this molecule yielded a normalised SPOT signal, Boehringer light units (BLU); mean over the file's lines of this peptide of 253.

YVVKKNFPVSPNYT [YMR015C 408-421]: the normalised SPOT signal, Boehringer light units (BLU); mean over the file's lines of this peptide in assay [1] was 234; in assay [2], 28.9; in assay [3], 194; in assay [4] it was 33.5; in assay [5], 332; in assay [6] it was 163. For the same molecule, in assay [7], the normalised SPOT signal, Boehringer light units (BLU); mean over the file's lines of this peptide worked out at 39.5.
